Publication PMC5957534

Experiments:
Experiment in all cases: DNA electrochemistry
AfXPB = molecular target: T1, AfXPB (Archaeoglobus fulgidus, UniProt O29889 1-452)
T1 sequence: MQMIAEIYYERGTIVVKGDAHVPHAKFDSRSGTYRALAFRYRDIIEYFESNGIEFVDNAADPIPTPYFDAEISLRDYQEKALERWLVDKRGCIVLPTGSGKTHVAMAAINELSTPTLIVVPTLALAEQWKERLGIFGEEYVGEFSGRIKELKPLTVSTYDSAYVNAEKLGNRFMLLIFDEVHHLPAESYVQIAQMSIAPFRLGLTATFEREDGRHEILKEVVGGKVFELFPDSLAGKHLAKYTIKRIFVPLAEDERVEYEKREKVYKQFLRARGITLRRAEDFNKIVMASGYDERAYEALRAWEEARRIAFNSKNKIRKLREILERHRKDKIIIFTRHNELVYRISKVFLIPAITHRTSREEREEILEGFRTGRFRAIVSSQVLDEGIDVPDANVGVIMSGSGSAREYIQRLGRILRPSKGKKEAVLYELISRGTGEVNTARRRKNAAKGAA

StXPB1 = molecular target: T2, StXPB1 (Sulfolobus tokodaii, UniProt Q971U1 1-543)
T2 sequence: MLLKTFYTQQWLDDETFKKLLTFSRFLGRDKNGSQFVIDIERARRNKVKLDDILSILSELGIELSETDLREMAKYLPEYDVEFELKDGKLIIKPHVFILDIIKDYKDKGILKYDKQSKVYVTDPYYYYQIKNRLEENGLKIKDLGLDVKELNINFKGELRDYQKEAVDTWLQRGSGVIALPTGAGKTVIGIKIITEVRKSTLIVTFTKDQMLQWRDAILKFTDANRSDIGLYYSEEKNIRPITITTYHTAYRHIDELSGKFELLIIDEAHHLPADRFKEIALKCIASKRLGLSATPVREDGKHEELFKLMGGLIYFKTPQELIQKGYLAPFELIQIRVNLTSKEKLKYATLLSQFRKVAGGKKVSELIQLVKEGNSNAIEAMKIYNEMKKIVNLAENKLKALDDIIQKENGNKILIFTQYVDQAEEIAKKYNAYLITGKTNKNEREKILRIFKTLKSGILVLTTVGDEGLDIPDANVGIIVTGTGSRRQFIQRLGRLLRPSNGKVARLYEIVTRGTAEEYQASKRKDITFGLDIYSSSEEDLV

StXPB2 = molecular target: T3, StXPB2 (Sulfolobus tokodaii, UniProt Q970I2 1-439)
T3 sequence: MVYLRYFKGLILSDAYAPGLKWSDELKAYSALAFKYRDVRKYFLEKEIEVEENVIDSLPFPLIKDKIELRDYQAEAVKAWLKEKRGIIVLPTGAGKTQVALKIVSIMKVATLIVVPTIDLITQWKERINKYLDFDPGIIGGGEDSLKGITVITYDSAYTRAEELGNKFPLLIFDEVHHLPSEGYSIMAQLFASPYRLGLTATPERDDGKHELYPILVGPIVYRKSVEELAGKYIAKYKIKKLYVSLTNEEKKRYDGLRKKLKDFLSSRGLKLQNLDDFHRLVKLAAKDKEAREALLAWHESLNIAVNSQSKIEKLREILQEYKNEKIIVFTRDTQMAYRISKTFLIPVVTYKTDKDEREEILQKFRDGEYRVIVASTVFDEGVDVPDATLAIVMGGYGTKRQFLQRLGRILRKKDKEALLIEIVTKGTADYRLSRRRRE

B1: 17mer well-matched duplex (WM) (dsDNA)
DNA 1: GAGATATAAAGCACGCA
DNA 2: TGCGTGCTTTATATCTC
modifications: strand 1 5' C6 thiol on gold electrode; strand 2 5'-terminal T is Nile Blue-modified (5-acrylate dU)
B1 gave a Kd (AfXPB) of 22 ± 8 nM, a Kd (StXPB1) of 8 ± 2 nM and a Kd (StXPB2) of 50 ± 10 nM.
